Data: a protein production outcome set (Wang et al. 2014)

Assay: label from the status in PepcDB records
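Note: failed if final PepcDB status was selected cloned or expressed and not failed if soluble or beyond.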

| Sequence | protein production |
| --- | --- |
| MQWDPGGATESRSKLYIYLRFLRIEQVFFSLPMAYMGAFLAIREIPPIQVLILMFFSLFFLRTAGMTNDNLADREIDAMNPRTKSRPLVTGKITVREAKLLITISLIGFFITAYLINLYALIFAPIVALIVMSYPYMKRYTAFANYHLASIQGLAVFSGAVASLGLYAKSFTQLVTGIPWLFVISTVFWAVGFDLYNHIPDADFDKKMGLHSFAVLLGDRALMFAGLNQLISVLLALFGDIQFNLGIIAYIATILHGLIMGYAYYSATRGNFGRAFYYNIYSSIVLGIGIIIDIIV | failed |
| MAIAHTYRRYLDYLRQDRGLAKNSLLVYGPFIRDFLDSHSAGDGSLLPDAFDAVTIRNHLLARSKGRSAEYTRLMAVALRSFCHFLFLRGDTARDLAGSVLEHHHHHH | failed |
| MNDRPNNYILTRESGFKVITELTKGQNCNGAETHPINGELYFNSWNAGQVFRYDFTTQETTPLFTIQDSGWEFHIQFHPSGNYAYIVVVNQHYILRSDYDWKTKRLTTPYIVCGQQGAKDWVDGVGKKARMHAPRQGTFVKNPAYKGSSDEYDFYFCDRENHCIRILTPQGRVTTFAGRGSNGTSGYNDGDLRQEARFNHPEGIVYDEERECFFIGDRENRRIRKIGLEHHHHHH | not failed |
| MAELFIPDEPIIEVTAVLSAILILVLVLPFKVRIVEENLEAFFFIMGLLGVATIYYYGILPTPDSLIGLFIKAFKTPLAIAHVGPIPIGIVQAVVFFGLVFYFFHKHIYSILASTMEKVGIPVFAFILTFLLGLISSVISVIVTAVILAEIAAALNISRERKVKYVVYASFAVGIGAALTPLGEPLSTIAISKLNAHFTYLIDILGVYIVPGIAVSAVAAAYSLRGEVYREGLVKFVYEESINEILLRGFRVFLFVAALELLGASFTPMVKWYFAQLPSWALYWINTISAVVDNATLTAAEMGPFLTEEQIRSALMSLLISGGMLIPGNIPNIVAAGRLRITMNEWARVGVPFGIALLLAYFIVIEVLDIHITLSF | failed |
| MAEERHHTEHIPQWKKDEIENIKELIQSHKVFGMVRIEGILATKIQKIRRDLKDVAVLKVSRNTLTERALNQLGESIPEMTRYLDNQTALIFTNESPFKLYKLLEQTKTPSPIKAGAIAPEDIIVQKGPTSFPPGPILGELQSAGIPASIDAGKVAVKETKVVCKAGEAVPQKLATMLSKLEIYPLIVGLDLRAAYDDGTIYEPELLAVDESKYFSDIIRAAQNAFNLSVNTAYPTGATIGTLLAKAYAESKSLGVNAVILEPGVMDSLLAKAHVQMTSVASEAAEKDANAVDDDLREVLGAAASAAAAATVAAPAAEEEKKEEEPEEEEEDHAEEDGMAGLGALFGLEHHHHHH | not failed |
| MGTIILTWNIQWGRGADGRVDLSRMLAEARAMGSFDVLCLQEVTSGFGHLPGQPGEDQWQELAGALGQAFTLIDGIALERHEGAQIRRFGNAIATRLPVLHVARHALPCPADAGPTMPRMAIEAIVQAPFGPLRVVSTHLEYYSETQRIAQIDALRALHVEGCMRAAHPPTLGPEPTDGPFRPLAQTRATVICGDFNCKPDSKPKRLATVPFSHEAAALYDAWETAHGPTPQPPTFGVHDRTGWTEPAYACDFMLVSEPLKTRVTRVEVNSTTQASDHQPTLLELRDAE | failed |
| MLTDSGGGGTSFEEDLDSVAPRSAPAGASEPPPPGGVGLGIRTVRLFGEAGPASGVGSSGGGGSGSGTGGGDAALDFKLAAAVLRTGGGGGASGSDEDEVSEVESFILDQEDLDNPVLKTTSEIFLSSTAEGADLRTVDPETQARLEALLEAAAFADPEVLRRLTSSVSCALDEAAAALTRMKAENSHNAGQVDTRSLAEACSDGDVNAVRKLLDEGRSVNEHTEEGESLLCLACSAGYYELAQVLLAMHANVEDRGNKGDITPLMAASSGGYLDIVKLLLLHDADVNSQSATGNTALTYACAGGFVDIVKVLLNEGANIEDHNENGHTPLMEAASAGHVEVARVLLDHGAGINTHSNEFKESALTLACYKGHLDMVRFLLEAGADQEHKTDEMHTALMEACMDGHVEVARLLLDSGAQVNMPADSFESPLTLAACGGHVELAALLIERGANLEEVNDEGYTPLMEAAREGHEEMVALLLAQGANINAQTEETQETALTLACCGGFSEVADFLIKAGADIELGCSTPLMEASQEGHLELVKYLLASGANVHATTATGDTALTYACENGHTDVADVLLQAGADLDKQEDMKTILEGIDPAKHQVRVAFDACKLLRKE | failed |
| MKMLNRLDLGVPCLRAGFAGEQAFFLAMDGRLHVQQGDQRRVVALHDGDVLSACAAPGQADAAAWLLSAGEDGRVMRAGAGEPDCVASVPNKWVTALAVAADGALAYASGRTVWLAGGGGEAAALPQERPVQALRFSHGGRWLAVAGYDGLALYDRQAGGEPQRLDWKGMPTRVAFSPDDRFVLVATRDAVLHGWRLDTLRHFRMVGYPRAVGSWSWLAGGQWLATDGSAGAVLWPFEGEEGPIGSTPLALGERPDGEVSAVACHPARPWVAVGYADGLMVLESTDGALRRILGQAGRDRVACLAWDRAGARLAYGTPSGACGVIQADTGEEG | failed |
| GGERRELKSLEQVHFAMAFEAPNYRAPDVYAAQVYAMALGGGMSSRLFQKVREERGLCYSIFAQSGAYEDTGQITIYAGTSGEEVADLAGLTVDELKRATEDMSEAEVARARAQLKAGLLMGLESPSNRAERLARLLAIWGRVPGVDEAVEKIDAVTVGAVRDYAERMAQARSALALYGPAEAAPALAQIRERLAA | failed |
| MRVVVTGATGFVGQQVVKALSDRGDQVVALVRSPGKAAKQFAGVPRVEWLGYTPKAAGDWFSALEGADAVIHLAGEPLANGRWTPQRKQEIYDSRVVGTQQLVQAIAQCQQRPRVLVSTSAIGYYGTSDTETFVETHAAGNDFLAKVCGDWEAAAQGVTELGVRLVILRFGIVLGEQGALAKLLLPFQLYLGGPLGSGQQWFSWIHQQDLVRLILTAVDQVGMQGVYNATAPEPLRMADFCRILAEVMQRPSWLPVPAPVLQLLLGEGADVVLKGQRVLPERTLATGFEFHYPNAKTALTNLLKPRYTEGSRLEHHHHHH | not failed |
| MAYDGLFTKKMVESLQFLTTGRVHKINQPDNDTILMVVRQNRQNHQLLLSIHPNFSRLQLTTKKYDNPFNPPMFARVFRKHLEGGIIESIKQIGNDRRIEIDIKSKDEIGDTIYRTVILEIMGKHSNLILVDENRKIIEGFKHLTPNTNHYRTVMPGFNYEAPPTQHKINPYDITGAEVLKYIDFNAGNIAKQLLNQFEGFSPLITNEIVSRRQFMTSSTLPEAFDEVMAETKLPPTPIFHKNHETGKEDFYFIKLNQFNDDTVTYDSLNDLLDRFYDARGERERVKQ | not failed |
| MQIGLEAGLTNQLIDEIDQQPGHLPLLEFALTQLWSKQQNRLLTHQAYQEIGGVEEALANHAEAVYAQLTEADRQRAQQIFIQLVRLGDDTEATRRLTTREEVRLENWDLVTRLASSRLVVTNRNESTAEETVEIVHEALIRSWGRLEQWLIVDGDFLRWREQLRLAIRLWENSGHDQGVLLRGKALIDAQEWQLQRAQELNTNEIRFINKSGELRELEVKQQQRIRKIGISSLVTGLILALGLAGVAWLQGQKARMSETKAISSSAESFLNANLEFDGLIASIRAGRRIKGTDGIDANTRTQITETLQQSINFVREKNRLAEHDGMLESVSFSPDSKFIATASRDKTVKIWSLDGKKQLVVLREEKGEGFNSVAFSPDGTLMATGSWDNTAKIWSREGKRLHTLDGHKEAVLEVAFSPDSQLLATASWDNTVKLWSREGKLLHTLEGHKDKVNSITFSPDGQLIATVGWDNTMKLWNLDGKELRTFRGHQDMIWSVSFSPDGKQIATASGDRTVKLWSLDGKELQTLRGHQNGVNSVTFSPDGKLIATASGDRTVKLWNSKGQELETLYGHTDAVNSVAFSPDGTSIATAGNDKTAKIWKLNSPNSIIVRGHEDEVFDLVFSPNGKYIATASWDKTAKLWSIVGDKLQELRTFNGHQGRVNKLSFSPDGKYIATTSWDKTAKLWNLDGTLQKTLTGHKDTVWSVNFSPDGQLIATASEDKTVKLWNRDGELLKTLPRQSSVVNSAVFSPDGKLIATAGWDKTVKIWSIDGRLQKTLTGHTSGINSVTFSPDGKLIASASWDNTVKIWNLDGKELRTLRGHKNVVHNVTFSPDGKLIATASGDNTVKIWNINGQELRTLRGYKDAVWSLRFSLDGKTLATGSRYDIVVWHLYLDDLDQLLVRGCDWARDYLQNNPNVNPDEKSLCDGIRPIAQQ | failed |
| MQKVEGIIFDMDGVLFDSERISLEFWMETFEKYGYTMTKEIYTSVMGRNRKGIIEGLTDIYDSSVPIIDLYDEKTKNMIEFMERKGAPIKLGVNELISFLKENGYKMAVATSTKRERAVKRLAKANLKDYFDAIVCGDDVVNSKPNPEIFLKAAKKINVNPKNCIVIEDSPMGVEAAYNGGIRCINVPDLKEPDEQIKSQSHKILENLLEVREYLKSLNSKECHNL | failed |
| MPSDNQRLALLPVGRTGRLDRPSLLLTGGSGVLGRALIDELSPDFDLLCLRRDTPLRDPRVRELQGDLVAPRLGLSPLAWHELALEVDVVLHCAAETDWRTPPQDITRTNLRGADTVLDLAARADAPLYLVSTAFVANTPTEEDRRHFPGAAAYLDSMARAEQMTREAGVPGAIVRPSVVMGDSGSGRIAGRQGLTRMIGSMVLGQAPVLPGAPATRIDMVPRDYVSRAIGDLVRGGVADGEYWLTAGQEAMGLREFADVCADVAVRHGLPRPQRPRFIPVDAVHRLLLPMLAGTSLPASLRRRLEYYAELLLVFQRELPFDTSLGEPDCGTRPTRTDLRAALVRNAESWAGNRAGLLSPNRSAATAPMEVAS | failed |
| MTRRALFGPKVAPLIQAASLTLALLLFLAACGPKGSYENVGPEELYEALAAGALVVDVRTPGEFAQGHVPGAINLPVEEVARWADRIPKDRPVYLYCRSGNRSRKAAEYLARKGYTNLYNVEGGVLAIARAGYPLVR | failed |
| MVANLVTVVIVNYNSGEMLGKCVEHLLKSTVPIQIIISDNASSDNSLALLEQSELNKQTITIHRNNSNYGFSYANNAVFTKISTPFILYLNPDCFVENDTIENLLHTMHQHNDAGMVGCLVNNMDGSVQIGCCGLTPTPARVLNQLLKLSKIFPNNSKFGGYLFSKEKLPTKPTEVELISGSCMFVRKKAIDEVGLLDDNYFLYCEDYDWFYRFTQSNWKIIFNPNTKVTHIKSFSTKQIPFKVLLYKAKGMWRFYNKFFKENSSPATTLIIRVGIIARFFSLSGLLLFKKLLRTTS | failed |
| MEDRIPVIKRFTGGGTVIVDKSTLFVSLICNKDDVPNVQPYPRSVMAWSGSLYDEVFKSVNGFQLRENDYVFGDRKFGGNAQSIIKNRWIHHTSFLWDYDVRNMAYLKLPSRVPQYRLERDHTDFVCRMKDYIERSDFVEKTVKAVRNQFTLKQVNLEDIDSYAKGGYLKTTRLLTMEELEEAMADTIQNT | failed |
| MPCVQAQYGSSPQGASPASQSYSYHSSGEYSSDFLTPEFVKFSMDLTNTEITATTSLPSFSTFMDNYSTGYDVKPPCLYQMPLSGQQSSIKVEDIQMHNYQQHSHLPPQSEEMMPHSGSVYYKPSSPPTPTTPGFQVQHSPMWDDPGSLHNFHQNYVATTHMIEQRKTPVSRLSLFSFKQSPPGTPVSSCQMRFDGPLHVPMNPEPAGSHHVVDGQTFAVPNPIRKPASMGFPGLQIGHASQLLDTQVPSPPSRGSPSNEGLCAVCGDNAACQHYGVRTCEGCKGFFKRTVQKNAKYVCLANKNCPVDKRRRNRCQYCRFQKCLAVGMVKEVVRTDSLKGRRGRLPSKPKSPQEPSPPSPPVSLISALVRAHVDSNPAMTSLDYSRFQANPDYQMSGDDTQHIQQFYDLLTGSMEIIRGWAEKIPGFADLPKADQDLLFESAFLELFVLRLAYRSNPVEGKLIFCNGVVLHRLQCVRGFGEWIDSIVEFSSNLQNMNIDISAFSCIAALAMVTERHGLKEPKRVEELQNKIVNCLKDHVTFNNGGLNRPNYLSKLLGKLPELRTLCTQGLQRIFYLKLEDLVPPPAIIDKLFLDTLPF | not failed |
| MKKIAFGCDHVGFILKHEIVAHLVERGVEVIDKGTWSSERTDYPHYASQVALAVAGGEVDGGILICGTGVGISIAANKFAGIRAVVCSEPYSAQLSRQHNDTNVLAFGSRVVGLELAKMIVDAWLGAQYEGGRHQQRVEAITAIEQRRN | not failed |
